The values below come from paper PMC8113450.

In this test the target is wild-type human Elp123 sub-complex (hElp123WT) (human) (UniProt O95163). In words: SEC; gel filtration of purified hElp123 on Superose 6 Increase 10/300 GL; 20 mM HEPES, 150 mM NaCl, 5 mM DTT, pH 8.0; Elp1-Elp2-Elp3 trimer to dimer of trimers. Background: In gel filtration, larger molecules generally elute earlier.

As a reminder, the stoichiometry N is a count of units in the complex or per binding partner. For “wild-type human Elp123 sub-complex (hElp123WT), O95163 1-1332; Q6IA86 1-826; Q9H9T3 1-547”, the stoichiometry N was 2.
